Assay results reported in paper PMC12084609, “Structural insights into small-molecule agonist recognition and activation of complement receptor C3aR” (The EMBO Journal, 2025).
Changes are numbered by the printed parent chain. “And” between values parts separate entries of the source, which are not always exact repeats. Equal entries are not always repeated.

How the values were obtained:
C3aR WT = biological target: T1, C3aR WT (Homo sapiens, UniProt Q16581); assay: GloSensor-based cAMP assay, WT C3aR (HEK293T); type: cell-based; conditions: for cAMP response (% Forskolin): WT, single replicates
T1 construct: expressed in transfected cells; host or cells: HEK293T
T1 sequence (Q16581 1-482): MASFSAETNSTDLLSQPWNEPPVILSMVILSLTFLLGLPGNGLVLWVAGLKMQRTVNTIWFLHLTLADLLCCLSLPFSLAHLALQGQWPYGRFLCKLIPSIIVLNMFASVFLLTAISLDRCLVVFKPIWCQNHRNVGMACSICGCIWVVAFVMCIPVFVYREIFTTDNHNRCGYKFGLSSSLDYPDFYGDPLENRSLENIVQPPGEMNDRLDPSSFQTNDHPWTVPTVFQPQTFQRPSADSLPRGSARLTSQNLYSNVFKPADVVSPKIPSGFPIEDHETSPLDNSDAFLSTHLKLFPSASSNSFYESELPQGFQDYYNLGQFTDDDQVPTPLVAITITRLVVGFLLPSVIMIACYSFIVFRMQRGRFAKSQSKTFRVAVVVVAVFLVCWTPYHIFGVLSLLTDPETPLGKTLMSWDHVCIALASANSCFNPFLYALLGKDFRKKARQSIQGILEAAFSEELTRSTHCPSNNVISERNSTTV
Protocol: (§1) HEK293T cells were seeded on 6-well plates (NEST) and transfected with pGlosensor™-22F plasmids (Promega) and pcDNA3.1 plasmids encoding C3aR or its mutants an with N-terminal FLAG tag. After 48 h, cells were detached with Accutase solution (Sigma-Aldrich) and washed with PBS, and resuspended in assay buffer (CO2-independent medium with 0.5 mg mL^−1D-luciferin). 100,000–200,000 cells were seeded on 96-well white bottom plates (SPL) and incubated at 37 °C for 45 min followed by 45 min incubation at room temperature. After 90 min of incubation, basal luminescence signals were recorded. In total, 25 μl of test ligand with various concentrations and 1 μM Forskolin (Sigma-Aldrich) were treated to the cells and luminescence signals were measured by Tristar 2 LB 942 multimode reader (Berthold). […] Relative luminescence unit (%) was calculated with the signal of wells treated with vehicle as 0% and the signal of wells treated with 1 μM Forskolin as 100% (DiRaddo et al, [2014]). Nonlinear regression was performed using a three-parameter logistic equation.

C3aR H81^2.63A = biological target: T2, C3aR H81^2.63A (Homo sapiens, UniProt Q16581, H81A); assay: GloSensor-based cAMP assay, C3aR mutant H81A; type: cell-based; conditions: for cAMP response (% Forskolin): H812.63A, single replicates
T2 construct: expressed in transfected cells; host or cells: HEK293T
T2 sequence (Q16581 1-482 H81A): T1 sequence (Q16581 1-482) with H81A
Protocol: as §1

C3a: anaphylatoxin C3a, natural peptide ligand of C3aR (a 77-amino acid peptide), Sigma-Aldrich
IC50 (C3aR WT; WT C3aR, decrease in cAMP levels, read-out: IC50): 2.87 nM
pIC50 (Replicate) (C3aR WT; WT C3aR, individual replicates): 8.46 and 8.98 and 8.82 and 8.27 and 8.58 and 8.47 (4×) and 8.89 and 8.95 and 8.48 and 8.53 (2×) and 8.50 and 8.45 and 8.54 and 8.67 and 8.44
cAMP response (% Forskolin) (C3aR WT; Log[C3a (M)] -7): 13.23 % Forskolin and 9.10 % Forskolin and 12.07 % Forskolin and 14.17 % Forskolin and 11.07 % Forskolin and 5.64 % Forskolin and 5.88 % Forskolin and 10.80 % Forskolin and 18.77 % Forskolin and 9.30 % Forskolin and 7.84 % Forskolin and 11.11 % Forskolin and 5.15 % Forskolin and 8.46 % Forskolin and 12.88 % Forskolin and 7.97 % Forskolin and 4.89 % Forskolin and 13.21 % Forskolin and 8.34 % Forskolin and 9.36 % Forskolin and 10.44 % Forskolin
cAMP response (% Forskolin) (C3aR WT; Log[C3a (M)] -8): 14.46 % Forskolin and 11.08 % Forskolin and 11.75 % Forskolin and 14.58 % Forskolin and 33.21 % Forskolin and 8.44 % Forskolin and 9.26 % Forskolin and 14.67 % Forskolin and 23.44 % Forskolin and 12.45 % Forskolin and 9.97 % Forskolin and 12.70 % Forskolin and 7.51 % Forskolin and 11.02 % Forskolin and 17.00 % Forskolin and 9.96 % Forskolin and 6.25 % Forskolin and 18.05 % Forskolin and 9.98 % Forskolin and 10.68 % Forskolin and 14.94 % Forskolin
cAMP response (% Forskolin) (C3aR WT; Log[C3a (M)] -9): 89.10 % Forskolin and 91.75 % Forskolin and 55.83 % Forskolin and 67.46 % Forskolin and 97.65 % Forskolin and 80.78 % Forskolin and 91.72 % Forskolin and 89.77 % Forskolin and 62.11 % Forskolin and 58.26 % Forskolin and 94.14 % Forskolin and 92.02 % Forskolin and 88.40 % Forskolin and 88.60 % Forskolin and 88.28 % Forskolin and 92.79 % Forskolin and 82.03 % Forskolin and 98.67 % Forskolin and 72.46 % Forskolin and 83.05 % Forskolin and 92.23 % Forskolin
cAMP response (% Forskolin) (C3aR WT; Log[C3a (M)] -10): 100.49 % Forskolin and 92.00 % Forskolin and 96.47 % Forskolin and 95.65 % Forskolin and 99.73 % Forskolin and 94.19 % Forskolin and 91.55 % Forskolin and 96.59 % Forskolin and 91.09 % Forskolin and 100.53 % Forskolin and 103.10 % Forskolin and 100.18 % Forskolin and 107.39 % Forskolin and 101.42 % Forskolin and 99.05 % Forskolin and 90.86 % Forskolin and 91.78 % Forskolin and 95.04 % Forskolin and 92.70 % Forskolin and 92.81 % Forskolin and 96.03 % Forskolin
cAMP response (% Forskolin) (C3aR WT; Log[C3a (M)] -11): 101.69 % Forskolin and 104.79 % Forskolin and 99.76 % Forskolin and 97.79 % Forskolin and 100.01 % Forskolin and 95.95 % Forskolin and 100.56 % Forskolin and 98.17 % Forskolin and 98.43 % Forskolin and 104.54 % Forskolin and 103.48 % Forskolin and 99.03 % Forskolin and 107.10 % Forskolin and 101.90 % Forskolin and 98.42 % Forskolin and 97.15 % Forskolin and 94.72 % Forskolin and 92.05 % Forskolin and 96.59 % Forskolin and 94.55 % Forskolin and 98.62 % Forskolin
cAMP response (% Forskolin) (C3aR WT; Log[C3a (M)] -12): 96.64 % Forskolin and 93.74 % Forskolin and 99.06 % Forskolin and 103.59 % Forskolin and 106.40 % Forskolin and 103.79 % Forskolin and 101.64 % Forskolin and 99.02 % Forskolin and 93.95 % Forskolin and 101.82 % Forskolin and 99.95 % Forskolin and 96.51 % Forskolin and 98.16 % Forskolin and 96.67 % Forskolin and 94.02 % Forskolin and 101.30 % Forskolin and 98.69 % Forskolin and 95.26 % Forskolin and 98.94 % Forskolin and 96.13 % Forskolin and 98.01 % Forskolin
Mean Diff. of pIC50, WT vs. H81A (C3aR H81^2.63A; Dunnett's multiple comparisons test, WT minus mutant): 0.390
ΔpIC50 ± SE of Diff. (C3aR H81^2.63A; H81^2.63A relative to WT C3aR): -0.39 ± 0.05
IC50 (C3aR H81^2.63A; H81^2.63A, dose-response plot, read-out: IC50): 7.45 nM
pIC50 (Replicate) (C3aR H81^2.63A; H81^2.63A, individual replicates): 8.23 and 8.03 and 8.24 and 8.26 and 7.82 and 8.16 and 8.00
pIC50 ± SEM (Mean) (C3aR H81^2.63A; H81^2.63A, mean of independent experiments): 8.11
cAMP response (% Forskolin) (C3aR H81^2.63A; Log[C3a (M)] -7): 16.97 % Forskolin and 18.16 % Forskolin and 16.81 % Forskolin and 12.45 % Forskolin and 16.49 % Forskolin and 12.75 % Forskolin and 10.89 % Forskolin
cAMP response (% Forskolin) (C3aR H81^2.63A; Log[C3a (M)] -8): 37.38 % Forskolin and 51.57 % Forskolin and 36.98 % Forskolin and 30.38 % Forskolin and 58.58 % Forskolin and 40.19 % Forskolin and 48.13 % Forskolin
cAMP response (% Forskolin) (C3aR H81^2.63A; Log[C3a (M)] -9): 95.75 % Forskolin and 95.02 % Forskolin and 98.54 % Forskolin and 105.34 % Forskolin and 92.35 % Forskolin and 92.22 % Forskolin and 94.48 % Forskolin
cAMP response (% Forskolin) (C3aR H81^2.63A; Log[C3a (M)] -10): 97.40 % Forskolin and 98.52 % Forskolin and 99.76 % Forskolin and 98.68 % Forskolin and 88.34 % Forskolin and 99.56 % Forskolin and 95.62 % Forskolin
cAMP response (% Forskolin) (C3aR H81^2.63A; Log[C3a (M)] -11): 96.99 % Forskolin and 98.64 % Forskolin and 99.98 % Forskolin and 102.79 % Forskolin and 93.58 % Forskolin and 91.17 % Forskolin and 97.12 % Forskolin
cAMP response (% Forskolin) (C3aR H81^2.63A; Log[C3a (M)] -12): 95.00 % Forskolin and 97.54 % Forskolin and 97.75 % Forskolin and 103.25 % Forskolin and 100.37 % Forskolin and 97.05 % Forskolin and 96.06 % Forskolin
